± gives the uncertainty stated by the source.

The results in this text go back to the Human Domainome abundance scans (Beltran et al. 2025).

B1: WW domain-containing transcription regulator protein 1, residues 116 to 162; numbered along this chain, Q9GZV5 (parent)
chain: QSYDVTDELPLPPGWEMTFTATGQRYFLNHIEKITTWQDPRKAMNQP

Variants of B1 are the subject of the data set. Kind of data set: abundance fitness (aPCA) (normalised: wild type 0, dead -1); higher = more abundant; growth selection in yeast, the domain comes from the species named. As to conditions: Homo sapiens.
For N45K, the abundance fitness is -0.052 ± 0.033.

Take N45Q: the abundance fitness was -0.223 ± 0.064.

Take N45G: the abundance fitness is -0.04 ± 0.031.

In the case of N45L, the abundance fitness is -0.118 ± 0.034.

Regarding N45V, the abundance fitness was -0.056 ± 0.024.

On to N45C, for which the abundance fitness is -0.089 ± 0.037.

Turning to N45H, the abundance fitness is -0.09 ± 0.036.

N45A: the abundance fitness is -0.018 ± 0.025.

As to N45R, the abundance fitness was -0.109 ± 0.028.

Turning to N45E, the abundance fitness is -0.125 ± 0.047.

As for N45M, the abundance fitness is -0.023 ± 0.045.

Turning to N45P, the abundance fitness is -0.135 ± 0.048.

For N45W, the abundance fitness was -0.043 ± 0.041.

As to N45Y, the abundance fitness was determined as 0.039 ± 0.051.

On to N45I, for which the abundance fitness is -0.084 ± 0.056.

Regarding N45T, the abundance fitness was -0.044 ± 0.025.

N45S: the abundance fitness is -0.093 ± 0.041.

For N45D, the abundance fitness is -0.092 ± 0.055.

With M44P, the abundance fitness is -0.068 ± 0.027.

On to M44D, for which the abundance fitness was 0.076 ± 0.064.

Take M44E: the abundance fitness worked out at 0.03 ± 0.026.

As to M44H, the abundance fitness was -0.085 ± 0.061.

As for M44V, the abundance fitness was -0.045 ± 0.033.

Consider M44L, for which the abundance fitness is -0.012 ± 0.03.

With M44G, the abundance fitness stood at 0.004 ± 0.029.

In the case of M44I, the abundance fitness is -0.244 ± 0.059.

With M44C, the abundance fitness was -0.02 ± 0.055.

As for M44Q, the abundance fitness is -0.014 ± 0.036.

Regarding M44W, the abundance fitness was -0.15 ± 0.046.

As for M44R, the abundance fitness was -0.06 ± 0.032.

As to M44N, the abundance fitness was -0.215 ± 0.09.

On to M44K, for which the abundance fitness is -0.033 ± 0.054.

In the case of M44T, the abundance fitness is -0.028 ± 0.031.

Turning to M44S, the abundance fitness is -0.089 ± 0.038.

Take M44A: the abundance fitness was determined as 0.005 ± 0.036.

In the case of M44Y, the abundance fitness turned out to be 0.014 ± 0.042.

For the variant M44F, the abundance fitness came out at 0.068 ± 0.058.

On to P47N, for which the abundance fitness is -0.84 ± 0.32.

Take P47T: the abundance fitness was -0.148 ± 0.043.

With P47L, the abundance fitness is 0.053 ± 0.48.

In the case of P47G, the abundance fitness was -0.677 ± 0.21.

Take P47H: the abundance fitness is -0.577 ± 0.32.

P47S: the abundance fitness was -0.125 ± 0.06.

Regarding P47A, the abundance fitness is -0.06 ± 0.38.

In the case of Q46F, the abundance fitness was 0.04 ± 0.025.

Turning to Q46N, the abundance fitness was -0.067 ± 0.046.

Take Q46Y: the abundance fitness is -0.221 ± 0.061.

With Q46I, the abundance fitness is -0.044 ± 0.063.

Take Q46M: the abundance fitness was -0.098 ± 0.039.

For the variant Q46S, the abundance fitness was -0.053 ± 0.041.

Q46R: the abundance fitness was -0.156 ± 0.035.

As for Q46C, the abundance fitness is -0.021 ± 0.027.

For Q46L, the abundance fitness is -0.022 ± 0.033.

Consider Q46A, for which the abundance fitness was -0.138 ± 0.039.

Consider Q46E, for which the abundance fitness was found to be 0.037 ± 0.032.

Q46W: the abundance fitness was -0.046 ± 0.041.

Consider Q46P, for which the abundance fitness stood at 0.026 ± 0.037.

Turning to Q46V, the abundance fitness is -0.018 ± 0.028.

Regarding Q46H, the abundance fitness is -0.394 ± 0.063.

In the case of Q46K, the abundance fitness is -0.164 ± 0.058.

Turning to Q46D, the abundance fitness was found to be 0.058 ± 0.043.

As to Q46T, the abundance fitness is -0.058 ± 0.045.

As for Q46G, the abundance fitness was -0.058 ± 0.033.

Turning to A43I, the abundance fitness was -0.073 ± 0.067.

For A43G, the abundance fitness is -0.013 ± 0.031.

Turning to A43Q, the abundance fitness was -0.056 ± 0.051.

As for A43N, the abundance fitness was determined as 0.046 ± 0.056.

As to A43W, the abundance fitness came to 0.086 ± 0.048.

A43S: the abundance fitness amounted to 0.01 ± 0.04.

A43K: the abundance fitness was -0.006 ± 0.061.

Regarding A43T, the abundance fitness amounted to 0.027 ± 0.045.

With A43M, the abundance fitness was -0.038 ± 0.059.

For A43L, the abundance fitness is -0.008 ± 0.037.

Regarding A43V, the abundance fitness was -0.025 ± 0.039.

For the variant A43Y, the abundance fitness is -0.127 ± 0.044.
